The record followed here is article PMC4729829, “BAP1/ASXL1 recruitment and activation for H2A deubiquitination” (Nature Communications, 2016).

Broadly, the stoichiometry N is a count of units in the complex or per binding partner. By Kd is commonly meant a measure of binding affinity in units of concentration. Higher therefore signals a looser complex.

For test [1], the target named is T1, full-length BAP1 (BRCA-1-associated protein 1) (human), Q92560.
T1 chain: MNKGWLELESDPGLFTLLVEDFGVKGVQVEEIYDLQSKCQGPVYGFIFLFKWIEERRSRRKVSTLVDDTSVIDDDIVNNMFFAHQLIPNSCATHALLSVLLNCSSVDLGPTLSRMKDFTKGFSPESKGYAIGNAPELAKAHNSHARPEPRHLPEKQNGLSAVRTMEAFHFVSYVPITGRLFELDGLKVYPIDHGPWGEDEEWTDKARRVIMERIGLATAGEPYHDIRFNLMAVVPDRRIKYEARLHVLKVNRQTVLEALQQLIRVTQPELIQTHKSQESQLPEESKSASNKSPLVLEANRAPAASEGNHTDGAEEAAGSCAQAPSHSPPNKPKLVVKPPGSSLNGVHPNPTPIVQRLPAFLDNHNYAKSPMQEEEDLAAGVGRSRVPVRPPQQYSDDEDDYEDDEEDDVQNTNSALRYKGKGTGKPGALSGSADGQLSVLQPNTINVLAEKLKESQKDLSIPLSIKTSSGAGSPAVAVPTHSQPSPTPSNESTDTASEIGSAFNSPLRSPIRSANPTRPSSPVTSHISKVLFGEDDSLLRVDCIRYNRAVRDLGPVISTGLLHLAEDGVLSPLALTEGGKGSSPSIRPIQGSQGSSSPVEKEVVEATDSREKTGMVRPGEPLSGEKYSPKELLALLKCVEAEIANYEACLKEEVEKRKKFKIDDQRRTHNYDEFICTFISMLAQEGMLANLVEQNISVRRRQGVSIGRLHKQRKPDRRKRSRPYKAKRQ
Put plainly: SEC-MALS; miniDawn detector in line with Superdex S75 10/30 (ASXL1DEU), Superose 6 10/30 (BAP1) or Superdex S200 10/30 (BAP1/ASXL1DEU); 10 mM HEPES pH 7.5, 150 mM NaCl, 0.5 mM TCEP, 4 °C; molecular weights from the refractive index signal. The note with it: remark: other sources report otherwise. Background: SEC sorts molecules by how far they enter the pores of the column.

The target in test [2] is T2, full-length BAP1 (BRCA-1-associated protein 1) (human, UniProt Q92560 1-729).
T2 construct: BAP1, uniprot Q92560, full length; Vector pFastBac-NKI-his-3C-LIC; no removal of the tag is described; also called FL BAP1; WT BAP1; source: Sf9 cells, purified (Ni2+ chelating sepharose, Poros HQ anion exchange, Superose 6 SEC)
T2 sequence (looked up): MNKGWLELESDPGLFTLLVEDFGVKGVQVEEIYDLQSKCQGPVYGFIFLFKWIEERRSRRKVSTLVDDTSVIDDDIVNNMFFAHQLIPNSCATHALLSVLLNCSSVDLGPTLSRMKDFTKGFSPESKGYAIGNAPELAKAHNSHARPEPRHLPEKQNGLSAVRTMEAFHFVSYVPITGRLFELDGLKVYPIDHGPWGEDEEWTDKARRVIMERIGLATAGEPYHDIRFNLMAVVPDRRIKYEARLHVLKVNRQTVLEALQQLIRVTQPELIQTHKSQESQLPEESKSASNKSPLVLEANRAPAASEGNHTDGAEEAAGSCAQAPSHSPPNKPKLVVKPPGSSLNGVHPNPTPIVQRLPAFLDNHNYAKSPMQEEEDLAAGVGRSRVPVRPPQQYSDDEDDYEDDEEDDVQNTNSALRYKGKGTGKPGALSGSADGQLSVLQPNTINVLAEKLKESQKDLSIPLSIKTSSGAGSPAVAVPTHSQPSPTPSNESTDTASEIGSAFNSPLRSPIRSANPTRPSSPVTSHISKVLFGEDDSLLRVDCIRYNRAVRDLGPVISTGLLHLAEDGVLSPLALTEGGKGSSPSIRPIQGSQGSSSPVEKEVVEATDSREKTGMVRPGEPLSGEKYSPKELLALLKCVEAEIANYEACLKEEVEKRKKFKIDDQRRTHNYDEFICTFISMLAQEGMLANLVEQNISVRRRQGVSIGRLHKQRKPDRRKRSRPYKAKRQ
As to the kind of experiment: ITC; VP-ITC at 25 °C; 25 mM HEPES pH 7.5, 150 mM NaCl, 10% glycerol, 0.5 mM TCEP; 30 μM ASXL1DEU (syringe) titrated into 13 μM BAP1 variant (cell), 10 or 5 μl injections; one-site binding model. The note with it: both partners purified. (In ITC the heat of successive injections is recorded.)

The target in test [3] is T3, BAP1 1-710 (lacks the C-terminal extension) (human, UniProt Q92560 1-710).
T3 construct: BAP1, uniprot Q92560, residues 1-710; Vector pFastBac-NKI-his-3C-LIC; source: Sf9 cells, purified (Ni2+ chelating sepharose, Poros HQ anion exchange, Superose 6 SEC)
T3 sequence (looked up): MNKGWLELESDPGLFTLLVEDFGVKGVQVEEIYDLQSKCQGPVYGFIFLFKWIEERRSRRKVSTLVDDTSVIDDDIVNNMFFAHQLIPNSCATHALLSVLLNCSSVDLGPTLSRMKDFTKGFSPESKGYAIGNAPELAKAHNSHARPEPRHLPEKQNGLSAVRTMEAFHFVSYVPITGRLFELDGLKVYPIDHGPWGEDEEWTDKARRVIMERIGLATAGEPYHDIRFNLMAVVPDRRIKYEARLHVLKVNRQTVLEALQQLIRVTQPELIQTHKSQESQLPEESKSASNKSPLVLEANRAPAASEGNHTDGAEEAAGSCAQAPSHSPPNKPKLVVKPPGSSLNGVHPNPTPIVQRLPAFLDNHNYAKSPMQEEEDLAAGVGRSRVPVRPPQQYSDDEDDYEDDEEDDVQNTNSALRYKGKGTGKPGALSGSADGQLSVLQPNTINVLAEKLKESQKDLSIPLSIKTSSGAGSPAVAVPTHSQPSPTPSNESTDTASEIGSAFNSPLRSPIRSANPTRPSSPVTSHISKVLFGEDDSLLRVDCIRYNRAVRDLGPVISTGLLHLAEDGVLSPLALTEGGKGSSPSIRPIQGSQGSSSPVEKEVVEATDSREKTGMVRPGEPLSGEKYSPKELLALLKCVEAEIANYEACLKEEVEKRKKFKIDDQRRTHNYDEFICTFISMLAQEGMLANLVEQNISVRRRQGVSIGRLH
The test is described as above. The note with it: both partners purified.

The target in test [4] is T4, BRCA-1-associated protein 1 (BAP1), full length, wild type (human, UniProt Q92560 1-729).
T4 construct: BAP1 (BRCA-1-associated protein 1), human, UniProt Q92560, full length; Cloned into pFastBac-NKI-his-3C-LIC; In isolation it forms dimers and higher order oligomers (SEC-MALLS); also called WT BAP1; full-length BAP1; source: Sf9 cells, purified (Ni2+ chelating sepharose, Poros HQ anion exchange, Superose 6 SEC)
T4 sequence (looked up): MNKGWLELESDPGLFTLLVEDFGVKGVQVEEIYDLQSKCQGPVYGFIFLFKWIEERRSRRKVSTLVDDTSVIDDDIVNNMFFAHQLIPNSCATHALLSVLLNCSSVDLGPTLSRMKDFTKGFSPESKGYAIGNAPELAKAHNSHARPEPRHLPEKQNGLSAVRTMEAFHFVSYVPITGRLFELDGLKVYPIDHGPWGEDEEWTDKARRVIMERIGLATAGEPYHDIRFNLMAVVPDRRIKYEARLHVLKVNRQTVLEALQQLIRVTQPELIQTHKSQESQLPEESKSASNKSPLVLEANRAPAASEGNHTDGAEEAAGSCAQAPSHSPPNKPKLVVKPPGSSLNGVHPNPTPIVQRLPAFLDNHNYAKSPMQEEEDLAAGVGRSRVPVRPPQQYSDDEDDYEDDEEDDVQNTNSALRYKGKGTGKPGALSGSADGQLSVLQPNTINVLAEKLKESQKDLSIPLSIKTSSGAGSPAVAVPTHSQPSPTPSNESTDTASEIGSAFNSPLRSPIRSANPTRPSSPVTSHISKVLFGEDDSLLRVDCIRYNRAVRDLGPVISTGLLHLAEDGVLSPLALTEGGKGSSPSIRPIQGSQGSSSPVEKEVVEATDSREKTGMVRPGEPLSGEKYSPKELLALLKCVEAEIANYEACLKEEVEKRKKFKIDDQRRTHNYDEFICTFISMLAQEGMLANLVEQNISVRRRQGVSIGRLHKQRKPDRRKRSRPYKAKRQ
As to the kind of experiment: SEC-MALS; SEC-MALLS, miniDawn detector; Superdex S75 10/30 (ASXL1^DEU), Superose 6 10/30 (BAP1) or Superdex S200 10/30 (BAP1/ASXL1^DEU); 10 mM HEPES pH 7.5, 150 mM NaCl, 0.5 mM TCEP; 4 °C. The following applies: both partners purified.

Test [5] concerns the target T4, BRCA-1-associated protein 1 (BAP1), …. As to the kind of experiment: ITC; 30 μM ASXL1^DEU in the syringe titrated (10 or 5 μl injections) into 13 μM BAP1 variant in the cell; 25 °C; 25 mM HEPES pH 7.5, 150 mM NaCl, 10% glycerol, 0.5 mM TCEP; one-site binding model. The following applies: both partners purified.

B1: full-length BAP1 (BRCA-1-associated protein 1), Q92560 1-729 (enzyme)
chain: MNKGWLELESDPGLFTLLVEDFGVKGVQVEEIYDLQSKCQGPVYGFIFLFKWIEERRSRRKVSTLVDDTSVIDDDIVNNMFFAHQLIPNSCATHALLSVLLNCSSVDLGPTLSRMKDFTKGFSPESKGYAIGNAPELAKAHNSHARPEPRHLPEKQNGLSAVRTMEAFHFVSYVPITGRLFELDGLKVYPIDHGPWGEDEEWTDKARRVIMERIGLATAGEPYHDIRFNLMAVVPDRRIKYEARLHVLKVNRQTVLEALQQLIRVTQPELIQTHKSQESQLPEESKSASNKSPLVLEANRAPAASEGNHTDGAEEAAGSCAQAPSHSPPNKPKLVVKPPGSSLNGVHPNPTPIVQRLPAFLDNHNYAKSPMQEEEDLAAGVGRSRVPVRPPQQYSDDEDDYEDDEEDDVQNTNSALRYKGKGTGKPGALSGSADGQLSVLQPNTINVLAEKLKESQKDLSIPLSIKTSSGAGSPAVAVPTHSQPSPTPSNESTDTASEIGSAFNSPLRSPIRSANPTRPSSPVTSHISKVLFGEDDSLLRVDCIRYNRAVRDLGPVISTGLLHLAEDGVLSPLALTEGGKGSSPSIRPIQGSQGSSSPVEKEVVEATDSREKTGMVRPGEPLSGEKYSPKELLALLKCVEAEIANYEACLKEEVEKRKKFKIDDQRRTHNYDEFICTFISMLAQEGMLANLVEQNISVRRRQGVSIGRLHKQRKPDRRKRSRPYKAKRQ
Molecule B1 showed a stoichiometry N in test [1] of 2.

B2: ASXL1 DEUBAD domain (aa 238-390) (domain or fragment, human, UniProt Q8IXJ9 238-390, looked up)
chain: ATGQMKRNRGEEIDFETPGSILVNTNLRALINSRTFHALPSHFQQQLLFLLPEVDRQVGTDGLLRLSSSALNNEFFTHAAQSWRERLADGEFTHEMQVRIRQEMEKEKKVEQWKEKFFEDYYGQKLGLTKEESLQQNVGQEEAEIKSGLCVPG
notes: ASXL1, uniprot Q8IXJ9, DEUBAD domain, residues 238-390; Vector pET-NKI-his-3C-LIC; also called His-ASXL1DEU; source: E. coli, purified (Ni2+ chelating sepharose, Poros HQ anion exchange, Superdex 75 SEC)
In the case of B2, the results for the “stoichiometry N” value in test [2] and in test [3] were 0.37 ± 0.002 and 0.27 ± 0.001, respectively. The same molecule had a Kd in test [3] of 5 ± 0.16 nM.

B3: ASXL1 DEUBAD domain (aa 238-390) (domain or fragment, human, UniProt Q8IXJ9 238-390, looked up)
chain: ATGQMKRNRGEEIDFETPGSILVNTNLRALINSRTFHALPSHFQQQLLFLLPEVDRQVGTDGLLRLSSSALNNEFFTHAAQSWRERLADGEFTHEMQVRIRQEMEKEKKVEQWKEKFFEDYYGQKLGLTKEESLQQNVGQEEAEIKSGLCVPG
notes: ASXL1 (additional sexcombs like 1), human, UniProt Q8IXJ9, DEUBAD domain, aa 238-390; Cloned into pET-NKI-his-3C-LIC; printed as His-ASXL1^DEU; Monomeric in SEC-MALLS; also called His-ASXL1^DEU; WT ASXL1^DEU; source: E. coli, purified (Ni2+ chelating sepharose, Poros HQ anion exchange, Superdex 75 SEC)
For the molecule B3, in test [4], the “stoichiometry N” value is 2 BAP1 molecules per ASXL1^DEU molecule. Moreover, in test [5], the Kd came to 18 nM and the “stoichiometry N” value lay in the range of 0.25 to 0.5.

B4: ASXL1 DEUBAD domain triple mutant N310A/E311K/F312A (domain or fragment, human, UniProt Q8IXJ9 238-390, looked up)
chain: ATGQMKRNRGEEIDFETPGSILVNTNLRALINSRTFHALPSHFQQQLLFLLPEVDRQVGTDGLLRLSSSALNAKAFTHAAQSWRERLADGEFTHEMQVRIRQEMEKEKKVEQWKEKFFEDYYGQKLGLTKEESLQQNVGQEEAEIKSGLCVPG
notes: ASXL1, human, UniProt Q8IXJ9, DEUBAD domain, aa 238-390, with N310A, E311K and F312A; Variant of m2; also called ASXL1NEF^DEU; NEF; source: E. coli, purified (Ni2+ chelating sepharose, Poros HQ anion exchange, Superdex 75 SEC)
B4 showed a Kd in test [5] of 45 nM.

B5: ASXL1 DEUBAD domain (aa 238-390) N310A/E311K/F312A (domain or fragment, human, UniProt Q8IXJ9 238-390, looked up)
chain: ATGQMKRNRGEEIDFETPGSILVNTNLRALINSRTFHALPSHFQQQLLFLLPEVDRQVGTDGLLRLSSSALNAKAFTHAAQSWRERLADGEFTHEMQVRIRQEMEKEKKVEQWKEKFFEDYYGQKLGLTKEESLQQNVGQEEAEIKSGLCVPG
notes: ASXL1, uniprot Q8IXJ9, DEUBAD domain, residues 238-390, triple mutant of the NEF region; Variant of Dm4; also called ASXL1NEF DEU; NEF; source: E. coli, purified (Ni2+ chelating sepharose, Poros HQ anion exchange, Superdex 75 SEC)
B5: in test [2], binding was characterised by a dissociation constant (Kd) of 46 ± 0.14 nM and the “stoichiometry N” value is 0.32 ± 0.003.
